The chains are these.
B1: glycine–arginine dipeptide protein repeat, 12 repeats (GR12) (peptide)
peptide: GRGRGRGRGRGRGRGRGRGRGRGR
notes: source: synthetic peptide (Scenic Biotech)
B2: proline–arginine dipeptide protein repeat, 12 repeats (PR12) (peptide)
peptide: PRPRPRPRPRPRPRPRPRPRPRPR
notes: as for B1
B3: glycine–alanine dipeptide protein repeat, 12 repeats (GA12) (peptide)
peptide: GAGAGAGAGAGAGAGAGAGAGAGA
notes: as for B1
B4: glycine–alanine dipeptide protein repeat, 6 repeats (GA6) (peptide)
peptide: GAGAGAGAGAGA
notes: as for B1
B5: proline–arginine dipeptide protein repeat, 6 repeats (PR6) (peptide)
peptide: PRPRPRPRPRPR
notes: as for B1
B6: proline–arginine dipeptide protein repeat, 3 repeats (PR3) (peptide)
peptide: PRPRPR
notes: as for B1
B7: glycine–arginine dipeptide protein repeat, 6 repeats (GR6) (peptide)
peptide: GRGRGRGRGRGR
notes: as for B1
B8: glycine–alanine dipeptide protein repeat, 3 repeats (GA3) (peptide)
peptide: GAGAGA
notes: as for B1
B9: glycine–arginine dipeptide protein repeat, 3 repeats (GR3) (peptide)
peptide: GRGRGR
notes: as for B1

The text below walks through data of PMC10844744, “C9orf72-associated dipeptide protein repeats form A11-positive oligomers in amyotrophic lateral sclerosis and frontotemporal dementia” (The Journal of Biological Chemistry, 2024).

One data set deals with the molecule itself. The data set can be described thus: far-Western, overlay or dot blot; monomeric 12-repeat DPRs seeded with brain-derived DPRs at 1:70 M ratio (seed to monomer), orbital shaker, 37 °C, 72 h; oligomerization confirmed by dot blot.
For the protein B1, the binding result was “binds”.
On the same count and under the same terms, the value for B2 was “binds”; that for B3 was “binds”.

A further data set deals with the molecule itself. The data set can be described thus: far-Western, overlay or dot blot; synthetic DPRs gently stirred in 1x PBS for 6 days, aliquots at days 1, 2, 4 and 6; 1 ul of 1 mg/ml dotted on nitrocellulose; oligomers read out with oligomer-specific antibody A11-19 (1:8000), fibrillar aggregates with OC (1:10,000).
With B4, the binding result is “binds”.
Still for that read-out and setting: the value for B5 was “binds”; that for B6 was “binds”.
Same read-out and setting: the value for B7 was “binds”; that for B8 was “binds”.
Consider B9, for which the binding result is on record as “binds”.
